Data published in US20250171533A1 (NEXTPOINT THERAPEUTICS, published 2025).

Experiments:
[1] = molecular target: T1, recombinant KIR3DL3 protein (human) (human, UniProt Q8N743 26-322, limits assumed); assay: SPR (Biacore); column kd1 (1/s); the drawn table names KIR3DL3 as analyte and NPX267 as ligand, paragraph 256 says the reverse
T1 construct: also called human KIR3DL3; killer cell immunoglobulin like receptor, three Ig domains and long cytoplasmic tail 3
Experimental: (§1) The monovalent binding affinity of NPX267 to recombinant KIR3DL3 protein was determined by SPR using a Biacore instrument; KIR3DL3 protein was immobilized on a CM5 chip and NPX267 was run as the analyte. […] No off-target binding was found in a screen of greater than 5800 plasma membrane proteins.

[2] = molecular target: T2, KIR3DL3 expressed on cells (human, UniProt Q8N743 26-410); assay: cell-based or functional assay
[3] = molecular target: T2, KIR3DL3 expressed on cells; assay: flow cytometry on primary human NK cells in whole blood, Donor KP63901, GeoMean of anti-human PE secondary; no unit in the table, unit taken from the axis Log [ug/ml]
Experimental: (§2) For primary human NK cells, human whole blood cells were treated with NPX267 at concentrations ranging from […] to […] for 30 minutes (FIG. 3C). Red blood cells were lysed and cells were stained with a cocktail of anti-human CD3, Anti-human CD56 and anti-human IgG4 PE. Flow cytometric analysis of primary antibody binding was detected using an anti-human PE secondary antibody.

[4] = molecular target: T1, recombinant KIR3DL3 protein (human); assay: SPR (Biacore); column ka1 (1/Ms); the drawn table names KIR3DL3 as analyte and NPX267 as ligand, paragraph 256 says the reverse
Experimental: as §1

[5] = molecular target: T1, recombinant KIR3DL3 protein (human); assay: SPR (Biacore), KIR3DL3 protein immobilized on a CM5 chip, NPX267 as analyte; KIR3DL3 immobilized on CM5 chip; NPX267 IgG4 as analyte
Experimental: as §1

[6] = molecular target: T2, KIR3DL3 expressed on cells; assay: flow cytometry on primary human NK cells in whole blood, Donor KP63936, GeoMean of anti-human PE secondary; no unit in the table, unit taken from the axis Log [ug/ml]
Experimental: as §2

[7] = molecular target: T2, KIR3DL3 expressed on cells; assay: flow cytometry on NK92MI cells, anti-human PE secondary, gMFI; no unit beside the number, unit taken from the axis log [ug/mL]
Experimental: (§3) Flow cytometric analysis of primary antibody binding was detected using an anti-human PE secondary antibody. The mean and standard deviation of duplicate data points are shown. Data performed in duplicate was entered into GraphPad Prism software and the EC₅₀ was determined using a 4-parameter nonlinear regression equation.
NK92 MI cells were treated with NPX267 at concentrations ranging from […] to 0.0005 mg/mL for 30 minutes (FIG. 3B). Flow cytometric analysis of primary antibody binding was detected using an anti-human PE secondary antibody. The mean and standard deviation of triplicate data points are shown.

[8] = molecular target: T2, KIR3DL3 expressed on cells; assay: blocking assay by flow cytometry on 300.19-KIR3DL3 cells; blocked ligand: recombinant biotinylated HHLA2, detected by streptavidin-APC
Experimental: Recombinant biotinylated HHLA2 at 5 mg/mL was added to the cells and incubated for 30 minutes. The cells were treated with 1:250 of APC-streptavidin for 30 minutes to detect recombinant biotinylated HHLA2 bound to cells. […] NPX267 blocked recombinant HHLA2-Fc from binding to its inhibitory receptor KIR3DL3 in a dose dependent manner.

[9] = molecular target: T2, KIR3DL3 expressed on cells; assay: flow cytometry on 300.19-KIR3DL3 cells, anti-human PE secondary, gMFI
Experimental: as §3

[10] = molecular target: T2, KIR3DL3 expressed on cells; assay: flow cytometry on primary human NK cells in whole blood, Donor KP63935, GeoMean of anti-human PE secondary; no unit in the table, unit taken from the axis Log [ug/ml]
Experimental: as §2

T1 sequence (Q8N743 26-322 limits assumed): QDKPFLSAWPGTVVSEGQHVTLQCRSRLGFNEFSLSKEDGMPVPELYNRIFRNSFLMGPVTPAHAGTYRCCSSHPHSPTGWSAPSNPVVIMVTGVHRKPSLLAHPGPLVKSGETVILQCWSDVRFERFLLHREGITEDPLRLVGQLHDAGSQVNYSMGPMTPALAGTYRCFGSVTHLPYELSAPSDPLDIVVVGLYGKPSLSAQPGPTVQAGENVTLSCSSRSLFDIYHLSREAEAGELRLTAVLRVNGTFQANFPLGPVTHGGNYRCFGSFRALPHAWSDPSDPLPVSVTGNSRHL
T2 sequence (Q8N743 26-410): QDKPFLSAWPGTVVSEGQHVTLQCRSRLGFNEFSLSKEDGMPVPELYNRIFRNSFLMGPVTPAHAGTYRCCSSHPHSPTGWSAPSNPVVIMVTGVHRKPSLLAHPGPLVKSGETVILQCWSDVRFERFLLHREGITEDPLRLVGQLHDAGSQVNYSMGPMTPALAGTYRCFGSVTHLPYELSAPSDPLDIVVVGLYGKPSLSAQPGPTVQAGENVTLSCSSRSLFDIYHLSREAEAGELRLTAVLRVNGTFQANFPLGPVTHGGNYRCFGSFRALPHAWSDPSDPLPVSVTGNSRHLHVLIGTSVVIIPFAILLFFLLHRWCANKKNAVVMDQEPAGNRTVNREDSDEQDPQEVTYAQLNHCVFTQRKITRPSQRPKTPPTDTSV

B1: NPX267 (Hu26E10z7p7) (antibody, human IgG4 S228P, kappa, V domains shown)
VH: QAQLVQSGAEVKKPGASVKVSCKASGYTFTSYNIHWVRQAPGQGLEWMGYIYPGDAVTNYNQKFKGRVTMTADTSTSTVYMELSSLRSEDTAVYYCARSGNYGNYEGFAYWGQGTLVTVSS
VL: DIQMTQSPSSLSASVGDRVTITCKASQDTQSYLSWFQQKPGKAPKTLIYRANRLVDGVPSRFSGSGSGTDFTLTISSLQPEDFATYYCLQYDEFPYTFGGGTKVEIKR
notes: For staining of tumor infiltrating NK cells an APC conjugate (NPX267-APC) was used; also called humanized version of 26E10
[1]
  koff: 0.000398 s⁻¹
[2]
  target cell death (Annexin V), NK92MI effector cells against K562 cells engineered to express HHLA2: 2 fold
[3]
  EC50: 0.0298 µg/mL
[4]
  kon: 587000 M⁻¹ s⁻¹
[5]
  Kd: 0.679 nM
[6]
  EC50: 0.098 µg/mL
[7]
  EC50: 0.131 µg/mL
[8]
  IC50 (read off the curve): ~0.05 µg/mL
[9]
  EC50: 0.0684 µg/mL
[10]
  EC50: 0.0294 µg/mL
